Measured values as given in patent US11407811B2, “Fusion protein, preparation method therefor and use thereof” (JIANGSU RONGTAI BIOTECH CO., LTD., priority 2017, dated 2022).

Assays:
lung cancer cell A549 = test: MTT assay, proliferation of lung cancer cell A549; format: cell-based
Procedure: (§1) The MTT assay was used to detect the inhibitory effect of the integrin blocker fusion protein obtained in Example 1 on the proliferation of various tumor cells, including melanoma cell B16F10, gastric cancer cell MGC-803, lung cancer cell A549, liver cancer cell Hep-G2, breast cancer cell MDA-MB-231, colon cancer cell HCT-116, human glioma U87, and cervical cancer cell Hela.
(§2) The tumor cells were cultured in a 5% CO2 incubator at 37° C. to a density of 90% or more, and collected by trypsinization. The cells were resuspended in the culture liquid and counted under a microscope. The cell concentration was adjusted to 3.0×10^4 cells/mL. The cell suspension was inoculated into a 96-well plate at 100 μL per well and cultured overnight in a 5% CO2 incubator at 37° C. […] After the cells were fully adhered, each dilution was added to a 96-well plate at 100 μL per well, respectively. […] 20 μL of 5 mg/mL MTT was added to each well of a 96-well plate, and incubation was continued for 4 hours. The medium was aspirated and 100 μL of DMSO per well were added to dissolve. The absorbance was measured at 570 nm with a microplate reader with a reference wavelength of 630 nm, and the proliferation inhibition (PI) was calculated. The formula is as follows: […]
(§3) where Ntest is the OD value of the test group and Ncontrol is the OD value of the blank control group.
(§4) The test was repeated 5 times independently. The results obtained from the test were calculated as mean±SD, and statistical t-test was performed. P<0.05 was considered as a significant difference, and P<0.01 was considered as an extremely significant difference.

[1] = system: colon cancer cells HCT-116; test: MTT assay, proliferation of colon cancer cell HCT-116; format: cell-based
Procedure: as §1, §2, §3, §4

B1: Protein II: IgG2-Fc linked to antiangiogenesis polypeptide EDSM-Y via a flexible linker; SEQ ID NO: 17 (protein)
chain: ERKCCVECPPCPAPPVAGPSVFLFPPKPKDTLMISRTPEVTCVVVDVSHEDPEVQFNWYVDGVEVHNAKTKPREEQFNSTFRVVSVLTVVHQDWLNGKEYKCKVSNKGLPAPIEKTISKTKGQPREPQVYTLPPSREEMTKNQVSLTCLVKGFYPSDISVEWESNGQPENNYKTTPPMLDSDGSFFLYSKLTVDKSRWQQGNVFSCSVMHEALHNHYTQKSLSLSPGKGGGGSGGGGSGGGGSFQPVLHLVALNSPLSGGMRGIRGADFQCFQQARAVGLAGTFRAGGGGRGD
A570 nm/A630 nm (lung cancer cell A549; dose 1 μg/mL): 0.8885 ± 0.0374 | PI (%) (lung cancer cell A549; dose 1 μg/mL): 8.28% | A570 nm/A630 nm (lung cancer cell A549; dose 2 μg/mL): 0.7933 ± 0.0253 | PI (%) (lung cancer cell A549; dose 2 μg/mL): 18.11% | A570 nm/A630 nm (lung cancer cell A549; dose 4 μg/mL): 0.7005 ± 0.0396 | PI (%) (lung cancer cell A549; dose 4 μg/mL): 27.69% | A570 nm/A630 nm (lung cancer cell A549; dose 8 μg/mL): 0.6325 ± 0.0215 | PI (%) (lung cancer cell A549; dose 8 μg/mL): 34.71% | A570 nm/A630 nm (lung cancer cell A549; dose 16 μg/mL): 0.5923 ± 0.0192 | PI (%) (lung cancer cell A549; dose 16 μg/mL): 38.86% | PI (%) (lung cancer cell A549; dose 16 μg/mL, listed as protein II): about 40% | A570 nm/A630 nm (lung cancer cell A549; dose 32 μg/mL): 0.5006 ± 0.0347 | PI (%) (lung cancer cell A549; dose 32 μg/mL): 48.32% | A570 nm/A630 nm (lung cancer cell A549; dose 64 μg/mL): 0.4106 ± 0.0286 | PI (%) (lung cancer cell A549; dose 64 μg/mL): 57.61% | A570 nm/A630 nm (lung cancer cell A549; dose 128 μg/mL): 0.2008 ± 0.0147 | PI (%) (lung cancer cell A549; dose 128 μg/mL): 79.27% | A570 nm/A630 nm (lung cancer cell A549; dose 256 μg/mL): 0.1165 ± 0.0159 | PI (%) (lung cancer cell A549; dose 256 μg/mL): 87.97% | A570 nm/A630 nm ([1]; dose 1 μg/mL): 0.8310 ± 0.0394 | PI (%) ([1]; dose 1 μg/mL): 5.59% | A570 nm/A630 nm ([1]; dose 2 μg/mL): 0.7925 ± 0.0415 | PI (%) ([1]; dose 2 μg/mL): 9.96% | A570 nm/A630 nm ([1]; dose 4 μg/mL): 0.7555 ± 0.0283 | PI (%) ([1]; dose 4 μg/mL): 14.17% | A570 nm/A630 nm ([1]; dose 8 μg/mL): 0.7023 ± 0.0347 | PI (%) ([1]; dose 8 μg/mL): 20.21% | A570 nm/A630 nm ([1]; dose 16 μg/mL): 0.6556 ± 0.0292 | PI (%) ([1]; dose 16 μg/mL): 25.52% | A570 nm/A630 nm ([1]; dose 32 μg/mL): 0.6113 ± 0.0279 | PI (%) ([1]; dose 32 μg/mL): 30.55% | A570 nm/A630 nm ([1]; dose 64 μg/mL): 0.5498 ± 0.0374 | PI (%) ([1]; dose 64 μg/mL): 37.54% | A570 nm/A630 nm ([1]; dose 128 μg/mL): 0.4898 ± 0.0289 | PI (%) ([1]; dose 128 μg/mL): 44.35% | A570 nm/A630 nm ([1]; dose 256 μg/mL): 0.4497 ± 0.0316 | PI (%) ([1]; dose 256 μg/mL): 48.91%
